The RNAGym collection of RNA variant scans (doi:10.1073/pnas.2313332121)
Variants at the floor of the assay were thinned out.

B1: TPR 5TU (parent)
chain: GGAUCUUCUCGAUCUAACAAAAAAGACAAAUCUGCCACAAAGCUUGAGAGCAUCUUCGGAUGCAGAGGCGGCAGCCUUCGGUGGCGCGAUAGCGCCAACGUUCUCAACUAUGACACGCAAAACGCGUGCUCCGUUGAAUGGAGUUUAUCAUG

Variants of: B1
Assay: polymerase ribozyme fitness, log enrichment relative to wild type (log ratio); higher = more active; in vitro selection for triplet polymerase activity
Procedure, shortened: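 Genotype fitness is the logarithm of its enrichment divided by wild-type enrichment, using inverse-variance-weighted averages of replicates. That logarithm is base 2. Enrichment was measured by Illumina sequencing of input and output libraries from one triplicate in vitro selection round, with frozen incubation at −7 °C, on PCR-built, transcribed mutant libraries of each subunit of a heterodimeric triplet polymerase ribozyme, retaining genotypes with ≥10 input reads and ≥1 read per output.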

| Variant | polymerase ribozyme fitness (log ratio) |
| --- | --- |
| A22C A24G C51G A52C U56A A121C | ≤ -4.2 |
| A21U G50U | 0.281 |
| A21U G50C | -3.57 |
| A22G G83C A98U C114U | -3.19 |
| A22C A115C C129G | ≤ -4.2 |
| A22U C96A | -0.026 |
| A22U C96G | -0.148 |
| A22C C27U G50C G80U U144G | ≤ -4.2 |
| A22U A120G U144A | 0.42 |
| A22C G84A G136C C149A | ≤ -4.2 |
| A22C A66C C103G G126C | ≤ -4.2 |
| A21U C32G C85A | ≤ -4.2 |
| A21U C32G U55A G83U | ≤ -4.2 |
| A22C U61C G80A A119U C125A | -2.69 |
| A22C A23G G62A A91G A98U C114A U146A | ≤ -4.2 |
| A22G C76U | 0.868 |
| A22C A23C C36G C79A C125A G140U | -3.55 |
| A22C C76A A89G C95G | -4.19 |
| A22G C32U A37G A41C G71A C95U C96G U139C | ≤ -4.2 |
| A21U U33A A40U G58A C85G A98C A106U G126C | ≤ -4.2 |
| A21U C38A U102A A120U A147C | -2.82 |
| A22G A52U C85U U109G | -3.97 |
| A22G U130A | -1.59 |
| A22C C85G U109A | -3.43 |

| Variant | polymerase ribozyme fitness (log ratio) |
| --- | --- |
| A22U C99U | -0.0944 |
| A22U C99A | 0.261 |
| A21U C93U U144C | -0.648 |
| A22C U144G | 0.903 |
| A22U C69A A91U | ≤ -4.2 |
| A22U C57A | -0.719 |
| A22G C57A G59C A60C | -2.03 |
| A22C A26U U56A G59C C87G U111C | ≤ -4.2 |
| A22C C27U U44A A47C U82C C95U A142C | ≤ -4.2 |
| A22G C36G G81U A89C A97C C116A | ≤ -4.2 |
| A21U G34A G141A C149G | ≤ -4.2 |
| A21U C36G U44C C54G G74U A89G A120C U134G | ≤ -4.2 |
| A22G C54U U56A C76U G94C U145A | -0.624 |
| A22U A37G A49C G62U C75G C76A G81U C85G G128C | ≤ -4.2 |
| A21U U61G G80A U101A | -2.86 |
| A22G C51U U78G C95U A107G U146C | ≤ -4.2 |
| A21U C57U C93U C96A C116U | -1.6 |
| A22C A39C U53A G68A A91U U146A | ≤ -4.2 |
| A22C A23G A49C A66G A113U | ≤ -4.2 |
| A21U G86A | -0.555 |
| A22U A26C U45A G48U U82G C87G C129G | ≤ -4.2 |
| A22U C75G | -3.65 |
| A21U C72U A122U | -0.472 |
| A22U C54U G92U A147U | 0.944 |

| Variant | polymerase ribozyme fitness (log ratio) |
| --- | --- |
| A22U A40G G84A A119G | -2.75 |
| A21U U45G U55A A91U C125U C131G | ≤ -4.2 |
| A22C G50A U55G U77C G94A | -4.04 |
| A22U A26C G62C C87A C116G A147U | ≤ -4.2 |
| A22C U45A | -2.58 |
| A22C G92C U101G C108A A120U | -4.07 |
| A21U A73U C116A U134A G141C A150G | ≤ -4.2 |
| A22C G50A C63A C69G A89G U127G G141U A142U | ≤ -4.2 |
| A22U A41U | 0.0369 |
| A22G A40G A52C C75U C99A A107G C108U U134A | ≤ -4.2 |
| A22G A113C | -2.12 |
| A21U C96U A97U U127C U139G | -2.62 |
| A22U C57A C96G A97U C118G A119C | -2.85 |
| A22G C132U | -0.512 |
| A22G C132G | -3.69 |
| A22G G58C A119U A122U | 0.574 |
| A22C A28G C36A U55A C87A C118G | ≤ -4.2 |
| A22C G46C G83C | -3.01 |
| A21U C96U A113U | -2.6 |
| A22U C38U C57U G94C G126U | -0.0445 |
| A22C A26U U33G G34A U55A A73U U77G G86A G143A | ≤ -4.2 |
| A22C C57A A106G G141C | -0.358 |
| A21U C57U C93G | -3.29 |
| A22C A137G | -2.58 |

| Variant | polymerase ribozyme fitness (log ratio) |
| --- | --- |
| A22C A41U U53C C75U | -2.58 |
| A22G A110G | -3.28 |
| A21U G42C U44A U53A U55A C87U | ≤ -4.2 |
| A22U C54U | 0.174 |
| A22C A29U U33C A47C U53G C95U C105A C118U | ≤ -4.2 |
| A22C U53G G94A A119G | -1.81 |
| A22U A73C G92U A110G U111C G141C | ≤ -4.2 |
| A22U A47U A49G G133C A142U | ≤ -4.2 |
| A21U U104C | 0.212 |
| A22C A23G C54U | ≤ -4.2 |
| A21U C38A G81A | 0.0427 |
| A22G C85U | -0.836 |
| A22G C85G | -2.32 |
| A21U U77G U78C G84A | ≤ -4.2 |
| A21U U33G A49C G50C C54A U82G G92U | ≤ -4.2 |
| A22C A47C C51G A64G C72A C95U A107G A113U U135A | ≤ -4.2 |
| A22C U44A C87U C103U | ≤ -4.2 |
| A21U C43A U78G G84U C93U C103G A115G | ≤ -4.2 |
| A21U C87G | ≤ -4.2 |
| A21U C87U | -0.254 |
| A21U C35A G50C A91G U134G | ≤ -4.2 |
| A21U C85U C131U U145G U151A | ≤ -4.2 |
| A22G A28G A52U G80A C93G U101C A113U G140U | ≤ -4.2 |
| A21U C36A A64C G86C | ≤ -4.2 |

| Variant | polymerase ribozyme fitness (log ratio) |
| --- | --- |
| A22G C85G A150G | -3.09 |
| A22G A106G A122C G124U | -0.81 |
| A22G A23U C35A C75A C95G | ≤ -4.2 |
| A22U A24U G58C A89U G143C | -2.7 |
| A21U C118U A119G | -3.17 |
| A21U C79U C93G | ≤ -4.2 |
| A21U C69A G88U A97C | ≤ -4.2 |
| A22G G42C A52C G58A G68U C87G A142C | ≤ -4.2 |
| A22U A26G A49U U102C A138G U144A | ≤ -4.2 |
| A22U C32A G42A G48A A52G U148A | ≤ -4.2 |
| A22C C43U C51U C76A C93A C125G | ≤ -4.2 |
| A22C U78C A98G U102G U151G | ≤ -4.2 |
| A22U A26G A28C A37U U56A C96U A98U | ≤ -4.2 |
| A21U C35U C43U U53A A60U G83C A98G A113G | ≤ -4.2 |
| A22G G124A | 0.539 |
| A22G C36A G48A C95G G140C | ≤ -4.2 |
| A22U A52C G65A C132G G140U | -3.17 |
| A22C C38U G58U A60C C85A C87U G133A G140U | ≤ -4.2 |
| A21U C27U C35A C57A G59C G74C G86U A89G U101G | ≤ -4.2 |
| A21U C38G C54U G92A G117U A121G | ≤ -4.2 |
| A22U A47C C54G G58U | -0.551 |
| A22C U55G A60G U101A C118G | -0.937 |
| A22U A37G A41G G48C G94U | ≤ -4.2 |
| A21U C57A A142U | -0.38 |

| Variant | polymerase ribozyme fitness (log ratio) |
| --- | --- |
| A21U U31C A73G G94U A113U | -3.49 |
| A22U C149U | 0.0648 |
| A22G G58A A120G C123A C129G | -3.06 |
| A22U A30C G81A C116G | -3.8 |
| A22G A39C U56A G80U | ≤ -4.2 |
| A22U A30G G46C G50C A52C U55G G83A G94A | ≤ -4.2 |
| A22U C27U C36U A98U | -3.64 |
| A22G G83A C105A | -3.83 |
| A21U U33G C72A C95U A122U | ≤ -4.2 |
| A22U C35G C76G G92A C105U | ≤ -4.2 |
| A22U A41U A60U A106U | -4.16 |
| A22C A49C G84C G94U | ≤ -4.2 |
| A22U C95A C96A C99U | -1.54 |
| A22U C103G A110C | ≤ -4.2 |
| A22G G59A | -0.246 |
| A22C U53A C57U G100A A119G A142C G152A | ≤ -4.2 |
| A22G C54U C85U C116G | 1.12 |
| A22U A39U A40C A66C C105U | ≤ -4.2 |
| A22C A28U A121U | ≤ -4.2 |
| A22U A41G G81A C87U C99U A119G G152A | -2.3 |
| A22U C76U U102G | -3.01 |
| A22U A28G | -3.35 |
| A22U C32G U134C | ≤ -4.2 |
| A22C A37C | -0.165 |

| Variant | polymerase ribozyme fitness (log ratio) |
| --- | --- |
| A21U G48A U82G C95G | ≤ -4.2 |
| A22G C27U A47U U56G C57G U77A C93A G143A | ≤ -4.2 |
| A21U G88A | -3.62 |
| A22G C108U | -4.08 |
| A22C A41C A49C U53A G67U G117A C131A | ≤ -4.2 |
| A22U A47U C96U U148A | -4.14 |
| A22U C108U | -2.85 |
| A21U U56A C96U | -0.871 |
| A21U G68C C69G C116U | ≤ -4.2 |
| A22G G50U U56G G58U C76U A122G | -4.16 |
| A22U A52G A91C U135G | ≤ -4.2 |
| A22C C27U A52C | -2.64 |
| A22C U33G G50C U78A C87A G126A U135A U144G | -3.83 |
| A21U G34U C51U G86A A89U U145G | ≤ -4.2 |
| A21U U44A C51U C57U G65A | ≤ -4.2 |
| A22U A28U C57U U77G C85G G92U | ≤ -4.2 |
| A22U A49G C54U C85U | -0.721 |
| A22U C54U U55A | 0.0331 |
| A21U G80C C85A U127A | ≤ -4.2 |
| A22U A28U U45G G50U C103G | ≤ -4.2 |
| A22U A30G G46C G50C A52C U55G C72U U82A C87A G88C U90A C99U | ≤ -4.2 |
| A21U U33G A122U U144G | -3.94 |
| A21U U135A | -1.24 |
